Fold increase of binding relative to the Ubx2-SZ*-GFP complex data for 1 molecule are collected here from publication PMC8503845.

This assay deals with SZ*-GFP-Ub4 (HA-tagged) (UniProt P0CG63). The experiment in a line: co-IP.

B1: Ubx2-6xGly-3xFLAG (natural protein)
chain: MPVVNHEDSEFHLSHTEEDKLNEFQVITNFPPEDLPDVVRLLRNHGWQLEPALSRYFDGEWKGEPDQMGEPTQTSTPMAETLVPPALGPRPLLFTASLPVVRPLPANFRNDFRTIGLNGRSNTVWSMFESFSYDGNPFLFILLLIPRIINRLSATIFTFFCTLLSLHSISGGGNSGKPKISKVPKAPTRETHIPLAEILGDTKDKDAFCELKSFKPDISFNEALRIAKEEFKFMLLILVGDTYDTDTDTVDVNSKLLLEKILLNKKTLQYLRKIDNDLIIYLKCVHELEPWLVARQLGVRNTPEIFLIANVANKASHSETLPSQRLSILGKLKVNSLNRFLQSLTNVVEKYTPELVVNKTEMHELRMSREIKKLQEDAYKKSLEMDRIKAIEKEKSLKHAQDLKLNSTARQLKWLKACIDEIQPFETTGKQATLQFRTSSGKRFVKKFPSMTTLYQIYQSIGCHIYLAVYSSDPAEWSNALQDKIRQLSADDDMLCFKEGQLETATATTIEELGHIINNELTSFDLERGKLEFDFELVSPFPKYTVHPNEHMSVDQVPQLWPNGSLLVEALDEEDEEDEENEEQ
As for B1, the fold increase of binding relative to the Ubx2-SZ*-GFP complex came out at 10 fold.
